# Assay results taken from IntAct's records for PubMed 18571423.
# B1: Histone-binding protein RBBP7 (Homo sapiens), Q16576 (parent)
# chain: MASKEMFEDTVEERVINEEYKIWKKNTPFLYDLVMTHALQWPSLTVQWLPEVTKPEGKDYALHWLVLGTHTSDEQNHLVVARVHIPNDDAQFDASHCDSDKGEFGGFGSVTGKIECEIKINHEGEVNRARYMPQNPHIIATKTPSSDVLVFDYTKHPAKPDPSGECNPDLRLRGHQKEGYGLSWNSNLSGHLLSASDDHTVCLWDINAGPKEGKIVDAKAIFTGHSAVVEDVAWHLLHESLFGSVADDQKLMIWDTRSNTTSKPSHLVDAHTAEVNCLSFNPYSEFILATGSADKTVALWDLRNLKLKLHTFESHKDEIFQVHWSPHNETILASSGTDRRLNVWDLSKIGEEQSAEDAEDGPPELLFIHGGHTAKISDFSWNPNEPWVICSVSEDNIMQIWQMAENIYNDEESDVTTSELEGQGS
# Variants of: B1
# Conditions: with h4_human H4C16, P62805
row,effect of a mutation on the interaction,Variant
1,disrupting interaction,E356Q;D357N;E359Q;D360N
2,disrupting interaction,L30Y
3,disrupting interaction,L30Y;E356Q;D357N;E359Q;D360N
